Assay results from patent EP3741773A1 (City of Hope, dated 2020).

Biological target: T1, meditope-enabled trastuzumab
T1 construct: after it there are no differences from the human heavy chain of trastuzumab; Full IgG was expressed; Labelled with Alexa dyes in FACS; also called TM; trastuzumab memab
Experiment: SPR

T1 sequence (heavy, as listed by the source, chain 1 of 2): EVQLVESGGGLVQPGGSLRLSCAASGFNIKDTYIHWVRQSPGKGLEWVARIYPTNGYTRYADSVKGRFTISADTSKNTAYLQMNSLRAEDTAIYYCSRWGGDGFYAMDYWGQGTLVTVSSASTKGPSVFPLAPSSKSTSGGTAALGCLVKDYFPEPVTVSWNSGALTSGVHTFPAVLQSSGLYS
T1 sequence (light, as listed by the source, chain 2 of 2): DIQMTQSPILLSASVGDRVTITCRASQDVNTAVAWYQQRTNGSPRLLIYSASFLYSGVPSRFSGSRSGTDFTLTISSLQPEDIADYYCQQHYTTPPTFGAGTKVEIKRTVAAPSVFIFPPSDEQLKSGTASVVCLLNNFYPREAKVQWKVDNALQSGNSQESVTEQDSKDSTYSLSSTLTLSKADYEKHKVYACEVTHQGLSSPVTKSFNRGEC

B1: Protein L (other)
chain: SEVTIKVNLIFADGKIQTAEFKGTFEEATAEAYRYAALLAKVNGEYTADLEDGGNHMNIKFAG
notes: also called Protein L (only); PpL
With B1 the Kd was about 500 nM.
